In the DeepSol protein solubility set:

assay: soluble on expression in E. coli; label from the status in PepcDB or PDB records

**Q.** For “SLNKNARLQQENHFLSLQRSRYDNLCAAIEETRQVRHDIRHHYLQLAALAEKGDMEKIKEYLSSADRKMPSFDFHFCDNQAVDSILGYYSNHAKQEGIPFLAQIDIPDNFLGDEMDICLVLSNLLENAIEASLKTEDSRRKIVIKMYLHHTHILLIQAENNFDAKILEKNGVFQSTKHSGNGIGIQSIRHITERNGGASNFTYKDGEFTAKIMLRI”, which “soluble on expression in E. coli” value is on record?
**A.** not soluble

**Q.** Which “soluble on expression in E. coli” value does the source give for “MQLISDRTSGAIHEIFGRDKALIGMIHCPPFPGAPRYRGETMDTIVDACLRDAERLVAGGLHGLVVENHGDIPFSKPDDIGPETAACLGVVTDRIRRAFGVPLGINVLANAPLPALAAAVAGGALFIRVNQWANAYVANEGFMEGRAAEAMRYRSLLRAEHVRIFADSHVKHGSHAIVADRSIPELTRDLAFFDADCIIATGQRTGDSATIAEIEEIGGATHLPLLVGSGVTEANVVEILKRTNGVIVASSLKEGGVWWNPVDPERVARFVAAAREGLDGLEHHHHHH” here?
**A.** not soluble

**Q.** With “MPEPTKKEEPSKEKEAGTTPAKDWTLVETPPGEEQAKQNANSQLSILFIEKPQGGTVKVGEDITFIAKVKAEDLLRKPTIKWFKGKWMDLASKAGKHLQLKETFERHSRVYTFEMQIIKAKDNFAGNYRCEVTYKDKFDSCSFDLEVHESTGTTPNIDIRSAFKRSGEGQEDAGELDFSGLLKRREVKQQEEEPQVDVWELLKNAKPSEYEKIAFQYGITDLRGMLKRLKRMRREEKKSAAFAKILDPAYQVDKGGRVRFVVELADPKLEVKWYKNGQEIRPSTKYIFEHKGCQRILFINNCQMTDDSEYYVTAGDEKCSTELFVREPPIMVTKQLEDTTAYCGERVELECEVSEDDANVKWFKNGEEIIPGPKSRYRIRVEGKKHILIIEGATKADAAEYSVMTTGGQSSAKLSVDLKPLKILTPLTDQTVNLGKEICLKCEISENIPGKWTKNGLPVQESDRLKVVQKGRIHKLVIANALTEDEGDYVFAPDAYNVTLPAKVHVIDPPKIILDGLDADNTVTVIAGNKLRLEIPISGEPPPKAMWSRGDKAIMEGSGRIRTESYPDSSTLVIDIAERDDSGVYHINLKNEAGEAHASIKVKVVDFPDPPVAPTVTEVGDDWCIMNWEPPAYDGGSPILGYFIERKKKQSSRWMRLNFDLCKETTFEPKKMIEGVAYEVRIFAVNAIGISKPSMPSRPFVPLAVTSPPTLLTVDSVTDTTVTMRWRPPDHIGAAGLDGYVLEYCFEGTEDWIVANKDLIDKTKFTITGLPTDAKIFVRVKAVNAAGASEPKYYSQPILVKEIIEPPKIRIPRHLKQTYIRRVGEAVNLVIPFQGKPRPELTWKKDGAEIDKNQINIRNSETDTIIFIRKAERSHSGKYDLQVKVDKFVETASIDIQIIDRPGPPQIVKIEDVWGENVALTWTPPKDDGNAAITGYTIQKADKKSMEWFTVIEHYHRTSATITELVIGNEYYFRVFSENMCGLSEDATMTKESAVIARDGKIYKNPVYEDFDFSEAPMFTQPLVNTYAIAGYNATLNCSVRGNPKPKITWMKNKVAIVDDPRYRMFSNQGVCTLEIRKPSPYDGGTYCCKAVNDLGTVEIECKLEVKV” as the sequence, how does the “soluble on expression in E. coli” value read?
**A.** soluble

**Q.** For “MGSSHHHHHHSSGLVPRGSSRRKSNCVKEVEKLQEKREKRRLQQQELREKRAQDVDATNPNYEIMCMIRDFRGSLDYRPLTTADPIDEHRICVCVRKRPLNKKETQMKDLDVITIPSKDVVMVHEPKQKVDLTRYLENQTFRFDYAFDDSAPNEMVYRFTARPLVETIFERGMATCFAYGQTGSGKTHTMGGDFSGKNQDCSKGIYALAARDVFLMLKKPNYKKLELQVYATFFEIYSGKVFDLLNRKTKLRVLEDGKQQVQVVGLQEREVKCVEDVLKLIDIGNSCRTSGQTSANAHSSRSHAVFQIILRRKGKLHGKFSLIDLAGNERGADTSSADRQTRLEGAEINKSLLALKECIRALGRNKPHTPFRASKLTQVLRDSFIGENSRTCMIATISPGMASCENTLNTLRYANRVKEL”, which “soluble on expression in E. coli” value is on record?
**A.** soluble

**Q.** For “MTAKTEDNLKEYTRSQVEQHCTHDDLWLLFRDKVYNMTPYFNQHPGGLAILRYAGKDVTTVLPFVVSHGIAWKIVEQKLQEHLIGKLKE”, which “soluble on expression in E. coli” value is on record?
**A.** not soluble

**Q.** For “AHHHHHHGSPKKERKVEGEEVIRVPLPEGNQLFGVVEQALGAGWMDVRCEDGKVRRCRIPGRLRRRVWIKVGDLVIVEPWPVQSDKRGDIVYRYTQTQVEWLLRKGKISQEFLTGGSLLLE”, which “soluble on expression in E. coli” value is on record?
**A.** not soluble

**Q.** Which “soluble on expression in E. coli” value does the source give for “MNEYAPLRLHVPEPTGRPGCQTDFSYLRLNDAGQARKPPVDVDAADTADLSYSLVRVLDEQGDAQGPWAEDIDPQILRQGMRAMLKTRIFDSRMVVAQRQKKMSFYMQSLGEEAIGSGQALALNRTDMCFPTYRQQSILMARDVSLVEMICQLLSNERDPLKGRQLPIMYSVREAGFFTISGNLATQFVQAVGWAMASAIKGDTKIASAWIGDGATAESDFHTALTFAHVYRAPVILNVVNNQWAISTFQAIAGGESTTFAGRGVGCGIASLRVDGNDFVAVYAASRWAAERARRGLGPSLIEWVTYRAGPHSTSDDPSKYRPADDWSHFPLGDPIARLKQHLIKIGHWSEEEHQATTAEFEAAVIAAQKEAEQYGTLANGHIPSAASMFEDVYKEMPDHLRRQRQELGV” here?
**A.** soluble

**Q.** Which “soluble on expression in E. coli” value does the source give for “MKSKKILIVGAGFSGAVIGRQLAEKGHQVHIIDQRDHIGGNSYDARDSETNVMVHVYGPHIFHTDNETVWNYINKHAEMMPYVNRVKATVNGQVFSLPINLHTINQFFSKTCSPDEARALIAEKGDSTIADPQTFEEQALRFIGKELYEAFFKGYTIKQWGMQPSELPASILKRLPVRFNYDDNYFNHKFQGMPKCGYTQMIKSILNHENIKVDLQREFIVDERTHYDHVFYSGPLDAFYGYQYGRLGYRTLDFKKFIYQGDYQGCAVMNYCSVDVPYTRITEHKYFSPWEQHDGSVCYKEYSRACEENDIPYYPIRQMGEMALLEKYLSLAENETNITFVGRLGTYRYLDMDVTIAEALKTAEVYLNSLTDNQPMPVFTVSVGHHHHHH” here?
**A.** soluble

**Q.** For “MQIKDEILSLLKRGKNLLAFSYGSDSSVLFYLLMQEKIDFDLVMINYKTRKNSDLEELKAKELALKFHKKIFIKHAPKFQSNFEKKARDFRYDFFEKICLEQGYDHLILAHHLNDQFEWFLMQLSRGAGLAEILGMQECEKRSNYTLLRPLLFISKDEISSFLKEKDIFYFHDES”, which “soluble on expression in E. coli” value is on record?
**A.** not soluble

**Q.** With “MDHGVVLLSDDQGLQWRQASSVPLSTPLTGVSFVDAKRGWAVGHWGAILITTDGGESWQVQRLATEEDRPLFAVHFFNARQGVAVGLWSLVLTTEDGGQTWSEQPLQAPPGAKRADLNLMGLFADSRGTLYATAEHGQVLHSEDQGKNWRYLDTGYEGTLWAGAVLADGRLLLGGQRGTLLQGSADGKGFHRVPTQSKGSVTCVAVAGSRVLAVGLDGLSVQSSDGGHSFQETQTADGLSLTAALFNAEGVPVLFSRRGVMPYQELEHHHHHH” as the sequence, how does the “soluble on expression in E. coli” value read?
**A.** not soluble

**Q.** With “MGSDKIHHHHHHLNTDPSTAVPSDDAIKNIDDAQVALNGIYRLASAHSYYGDNYLYYADCRGEDVQARINKGAGRRVSPYYFFDVTADDNFNITLVWNQPYKVIHQANSLIEKLDAGNAGNARPEEVARIKSEALAMRGLALFDLTRLFGMPYTLDNGASLGVPIEIQTTLEDHAPERNTVAQCYEQVLKDLNDALGGLTKEKHDAYMNYWSVKALLSRVYLYMNDNENALKCAEEVINDNGGIYRLFTHDEYPSVWGKDFNSESLFEFYFTMSEPSGGSGGEGAPMVYADNVKDWNNLILTKAYLDLLNEDPEDVRHVFPHLPENAVADTLPVAAKGQPKYLIKYPGKSGSVTDAVSTVNPQDNDLCILRLSEVYLNAAEAAFKIGNTEKALTYLNAIVTRANPAKSVTSADLSLERILKERRKELVGEGHAFFDYMRNGKSVDRSGGWHLTMPEDARVIAPSDPRVALPIPQTEIDANPNIVQNPR” as the sequence, how does the “soluble on expression in E. coli” value read?
**A.** not soluble

**Q.** Which “soluble on expression in E. coli” value does the source give for “MDKTTHDKGLEIRKAVLGEAYVENALKNADDFNQPFQELVTEYCWGAIWGRDGLPKKTRSMLNLAMIAILNRPHELRAHIKGALTNGVTKDEIREIFMQVACYAGIPAGVDSFRIAREVFAELDKA” here?
**A.** not soluble

**Q.** For “MSLIWKRKITLEALNAMGEGNMVGFLDIRFEHIGDDTLEATMPVDSRTKQPFGLLHGGASVVLAESIGSVAGYLCTEGEQKVVGLEINANHVRSAREGRVRGVCKPLHLGSRHQVWQIEIFDEKGRLCCSSRLTTAILEGGSHHHHHH”, which “soluble on expression in E. coli” value is on record?
**A.** soluble

**Q.** Which “soluble on expression in E. coli” value does the source give for “MSFKEIKAEDLQFNPFTRIGSDWMLITAGDEKKFNTMTASWGGAGVFWGKNVVTCYIRPQRYTKEFVDANDTFTLSFYGPECKNALNLCGTVSGRDRDKISEAGLTPYFTEGTAAFEEANLIFVCRKIYQDDMPYENFIAKENDAKYYPNKDYHTMYIAEIVKILVAE” here?
**A.** not soluble

**Q.** With “MSLEPLAETYQALVLAVRDYVTKNGFHGAVLGLSGGIDSALTLAIAADAIGADKVQAVMMPFRYTAQMSVEDAKEQAERMGVEFNIISIEPMFEGFMAQLAPLFEGTARDTTEENLQARCRGVLLMALSNKRRCIVLTTGNKSEMAVGYATLYGDMAGGFDVLKDVPKTLVFKLCEYRNSVDYVIPQRVIDRPPSAELAPDQVDQDSLPPYDILDAILKRYVEEDASVADMVAEGFEEAVVRKVIRLVDLNEYKRRQAAVGPRITARNEGHHHHHH” as the sequence, how does the “soluble on expression in E. coli” value read?
**A.** not soluble

**Q.** With “MGCFFSKRRKADKESRPENEEERPKQYSWDQREKVDPKDYMFSGLKDETVGRLPGTVAGQQFLIQDCENCNIYIFDHSATVTIDDCTNCIIFLGPVKGSVFFRNCRDCKCTLACQQFRVRDCRKLEVFLCCATQPIIESSSNIKFGCFQWYYPELAFQFKDAGLSIFDNTWSNIHDFTPVSGELNWSLLPEDAVVQDYVPIPTTEELKAVRVSTEANRSIVPISRGQRQKSSDESCLVVLFAGDYTIANARKLIDEMVGKGFFLVQTKEVSMKAEDAQRVFREKAPDFLPLLNKGPVIALEFNGDGAVEVCQLIVNEIFNGTKMFVSESKETASGDVDSFYNFADIQMGILEHHHHHH” as the sequence, how does the “soluble on expression in E. coli” value read?
**A.** soluble

**Q.** With “EACGYSDRVLQLTLGNSTITTQEAANSVVAYGRWPEYLRDSEANPVDQPTEPDVAACRFYTLDTVSWTKESRGWWWKLPDALRDMGLFGQNMYYHYLGRSGYTVHVQCNASKFHQGALGVFAVPEMCLAGDSNTTTMHTSYQNANPGEKGGTFTGTFTPDNNQTSPARRFCPVDYLLGNGTLLGNAFVFPHQIINLRTNNCATLVLPYVNSLSIDSMVKHNNWGIAILPLAPLNFASESSPEIPITLTIAPMCCEFNGLRNITLPRLQ” as the sequence, how does the “soluble on expression in E. coli” value read?
**A.** soluble

**Q.** For “MQYKGQGFQPVAEKSAIAHAKKYREEYEKLGEQFFKDNFSLNVKATNVVGSGDGVEVYVHCDDHDIVFNASIPFDKEAIHEEGSMRSNDNGDTMSNMVGTVLSGFEYKAQKEKYDNLTKFFKDNEEKYQYTGFTKEAIHKTQNVGYQNEYYYLAGNVTNINNYRKYYEPLIKKDSKNFKEGMKKANEATNFKAKIEVVSTLFSTKSDFTKNNSKKDLLFLSDDLYHYKEKPENTNITLQLSEPKINSTRAFYDANNPLEYGVHKHELEHHHHHH”, which “soluble on expression in E. coli” value is on record?
**A.** not soluble

**Q.** Which “soluble on expression in E. coli” value does the source give for “MGSEILVGIGEFRVAKGAVLKTIGLGSCVGIALYDPKLRLGGLAHVMLPQSGNGTKRSAKYADHAVEMMTEAMERLGSDRKRIVAKMAGGAQIFKHMTMDMLRIGDRNAEAIRTILRDYGIRIVSEDLGGDEGRTVYFFTNDGRMLVKYSRGGELWI” here?
**A.** soluble

**Q.** Which “soluble on expression in E. coli” value does the source give for “MGHHHHHHSHMAGGGAGDPGLGAAAAPAPETREHLFKVLVIGELGVGKTSIIKRYVHQLFSQHYRATIGVDFALKVLNWDSRTLVRLQLWDIAGQERFGNMTRVYYKEAVGAFVVFDISRSSTFEAVLKWKSDLDSKVHLPNGSPIPAVLLANKCDQNKDSSQSPSQVDQFCKEHGFAGWFETSAKDNINIEEAARFLVEKILVNHQSFPNEENDVDKIKLDQETLRAENKSQCC” here?
**A.** soluble
